{
  "source": "paper PMC12403663",
  "binders": {"B1": {"name": "HSA-binding aptamer (ssDNA)", "DNA": "TGCGGTTGTAGTACTCGTGGCCG", "modifications": "5' Amino C6; 3' Thiol C6 SS"}, "B2": {"name": "RBP4-binding aptamer (ssDNA)", "DNA": "ATACCAGCTTATTCAATTACAGTAGTGAGGGGTCCGTCGTGGGGTAGTTGGGTCGTGGAGATAGTAAGTGC", "modifications": "5' Amino C6; 3' Thiol C6 SS"}},
  "key": {"[1]": {"molecular_target": "human serum albumin (HSA) (Homo sapiens, UniProt P02768 25-609)", "sequence (P02768 25-609)": "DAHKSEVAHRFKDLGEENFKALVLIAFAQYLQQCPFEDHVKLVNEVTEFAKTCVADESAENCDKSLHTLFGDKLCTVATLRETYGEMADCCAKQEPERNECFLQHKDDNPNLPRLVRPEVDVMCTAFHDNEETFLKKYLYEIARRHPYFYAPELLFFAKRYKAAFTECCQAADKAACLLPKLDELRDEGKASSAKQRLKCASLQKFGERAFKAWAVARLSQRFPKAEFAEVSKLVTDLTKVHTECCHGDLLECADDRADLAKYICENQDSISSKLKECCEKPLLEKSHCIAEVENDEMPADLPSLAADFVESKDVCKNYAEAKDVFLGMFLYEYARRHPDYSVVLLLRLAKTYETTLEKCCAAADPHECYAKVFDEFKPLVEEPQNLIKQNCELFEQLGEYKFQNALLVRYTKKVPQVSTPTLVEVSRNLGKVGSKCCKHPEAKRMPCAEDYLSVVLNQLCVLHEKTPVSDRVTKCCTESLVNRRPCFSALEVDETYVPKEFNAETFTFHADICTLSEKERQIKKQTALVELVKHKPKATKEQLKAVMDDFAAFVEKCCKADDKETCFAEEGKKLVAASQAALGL", "test": "electrochemical aptasensor"}, "[2]": {"molecular_target": "retinol-binding protein 4 (RBP4, also printed RPB4) (UniProt P02753 19-201)", "test": "electrochemical aptasensor"}},
  "data": [
    {"binder": "B1", "values": [
      {"measurement": "binding result", "setting": "[1]", "result": "binds"}
    ]},
    {"binder": "B2", "values": [
      {"measurement": "binding result", "setting": "[2]", "result": "binds"}
    ]}
  ]
}
